Results as given in patent US20220160939A1, “SELF-ASSEMBLING PEPTIDES AS BRONCHIAL OBSTRUCTION AGENTS” (3-D MATRIX, LTD., priority 2014, published 2022).

What was measured:
Format in all cases: physicochemical
[1] = Gelation kinetics of 0.5% RADA16 treated with cations and anions
Description: Rheological measurements of gelation kinetics of 0.5% RADA16 (SEQ ID NO:1)+NaCl, KCl, and CaCl2) were evaluated. A solution of 0.5% RADA16 (SEQ ID NO:1) was prepared and gelation kinetics were observed by treatment with several cations (e.g., Nat, Ca^2+, K^+) and anions (e.g., Cl^−, CO3^2−, PO4^3−, SO4^2−). It was determined how long it will take for the peptide mixtures to gel and how to control that gelation time by varying the cation/anion type and concentration. […] In vivo and in vitro qualitative experiments and the resulting observations were supportive of these conclusions.

[2] = Rheological measurements of RADA16 with NaCl, KCl, CaCl2 (stiffness, reversibility)
Description: In a rheological comparison of […] (SEQ ID NO:1)+NaCl, KCl, and CaCl2), solutions of 0.5% RADA16 (SEQ ID NO:1) mixed with 0.005, 0.05, 0.125, 0.25, 0.5, and 1 M NaCl, KCl, and CaCl2) were prepared. The anion, chloride (Cl−), was kept the same to observe the effect of the cations, sodium (Na+), potassium (K+), and calcium (Ca2+). FIG. 21 provides a basic understanding of how varying the cations of a salt solution effects the viscoelastic properties and the stiffness of self-assembling peptides. […] This should be because Ca has […] higher ionic strength than Na and K at the same molar concentrations. Therefore, influence of salts on the peptide solution is more related to their ionic strength rather than their molar concentration, as shown in FIGS. 17-18 and Table 2a-c. In some embodiments, there is a correlation between the properties of the peptide solutions with salts based on the concentration of the salt.
Rheological measurements of stiffness of 2.5% RADA16 (SEQ ID NO:1) and 2.5% RADA16 (SEQ ID NO:1)+0.25 M CaCl2) was evaluated.
Rheological measurements of reversibility of 0.5% RADA16 (SEQ ID NO:1) solution with +0.125, 0.25, and 0.5 M CaCl2) were evaluated. Solutions of 0.5% RADA16 (SEQ ID NO:1) mixed with 0.125, 0.25, and 0.5 M CaCl2) were prepared. The structure of the self-assembled peptide solutions were disrupted thoroughly by application of mechanical stress through vortexing and sonication. The mixtures were placed at room temperature for 48 hours to allow self-assembly to take place. […] FIG. 23A presents raw rheological data of the control peptide solution with salts and the perturbed peptide solution while FIG. 23B provides a comparison of stiffness of the control peptide solution and the perturbed peptide solution.

[3] = Mechanical properties of IEIK13 with and without Indigo Carmine; details: 1.5% IEIK13; 0.00585% Indigo Carmine; 24 hours post reconstitution
Description: Indigo carmine powder was used to prepare a 1% solution in deionized (DI) water. Using IEIK13 (SEQ ID NO:2) powder, a 2 percent solution was prepared using DI water. The amount of IEIK13 (SEQ ID NO:2) was weighed out and the appropriate amount of DI water was added gently down the side of the container. Mixing was accomplished by vortexing for about 30 seconds, and then sonicating for 30 seconds. The solution was then centrifuged for about 10 to about 15 minutes at […]. The solution may undergo further vortexing and centrifuging until the solution is clear and without bubbles.
To obtain a final concentration of 0.00585% indigo carmine, the necessary amount of 1% IC is added to the appropriate amount of DI water to dilute 2% IEIK (SEQ ID NO:2) to 1.5% IEIK (SEQ ID NO:2). The solution is then vortexted for about 30 seconds and centrifuged for about 10 to about 15 minutes at 3000 rpm. The solution may undergo further vortexing and centrifuging until the solution is clear and without bubbles.
The solution was allowed to sit overnight at room temperature prior to use. The cap may be left off of the container during preparation to allow more efficient removal of bubbles.
Visualization of hydrogel spreading throughout the lumen of the lungs was necessary for determination of feasibility. Indigo Carmine was chosen as a common contrast reagent. […]

[4] = Rheological properties of 1% peptides before and after DMEM treatment for 2 minutes; details: peptides 1%; DMEM 2 minutes; compared with weaker peptide solutions (i.e., PuraMatrix)
Description: The effects of Dulbecco's modified Eagle's medium (DMEM) (pH 7.4) on the rheological properties of IEIK13 (SEQ ID NO:2), KLD12 (SEQ ID NO:3), and PuraMatrix® (SEQ ID NO:1) were evaluated on a rheometer (AR500, TA Instruments) with 40 mm plates. DMEM is generally a cell culture medium that contains 6.4 g/L of NaCl, 3.4 g/L NaHCO3 (sodium bicarbonate), minor amounts of other salts, various amino acids, and 4.5 g/L of glucose. The pH level of DMEM is generally 7.2±0.2 and the osmolality is 335±30 mOsm/Kg H2O; both measurements are close to human physiological fluids such as blood.
Peptide solutions (1%) were kept at 4° C. for at least 48 hours before testing. To perform the experiment, 1 mL of peptide solution was gently pipetted and placed on the plate of the rheometer. 2 mL of DMEM solution was gently added around the peptide solution. The peptide solution was treated with DMEM for two minutes, then the media was removed, and the plates were placed at a measuring geometry gap at around 450 μm. Measurements were performed at 37° C. after 2 min of relaxation time. Frequency tests were performed from 1 rad/s to 100 rad/s at 1 Pa of oscillation stress.
The rheological properties of the peptides (1%) were compared before and after DMEM treatment for 2 minutes, as shown in FIG. 1A. […]

**Q.** For “Arg-Ala-Asp-Ala-Arg-Ala-Asp-Ala-Arg-Ala-Asp-Ala-Arg-Ala-Asp-Ala [PuraMatrix ®]”, which “gelation speed by anion” value ([1]; chloride) is on record?
**A.** quickest gelation

**Q.** And the “gelation speed by anion” value ([1]; sulfate)?
**A.** slowest gelation

**Q.** And the “enhancement of stiffness by Ca compared to Na or K” value ([2]; 0.5% RADA16, chloride salts at the same molar concentrations)?
**A.** best enhancement of stiffness

**Q.** What about the “stiffness with added cation solution versus without” value ([2]; 2.5% RADA16 with addition of 0.125 M CaCl2) of the same substance?
**A.** noticeable increase in stiffness

**Q.** What about the storage modulus ([2]; about 0.5 w/v percent, calcium chloride about 0.125 M) of the same substance?
**A.** about 25 Pa

**Q.** And the storage modulus ([2]; about 0.5 w/v percent, calcium chloride about 0.250 M)?
**A.** about 44 Pa

**Q.** What about the storage modulus ([2]; about 0.5 w/v percent, calcium chloride about 0.500 M) of the same substance?
**A.** about 52 Pa

**Q.** What about the storage modulus ([2]; about 2.5 w/v percent, calcium chloride about 0.125 M) of the same substance?
**A.** about 600 Pa

**Q.** What does the source list for “Ile-Glu-Ile-Lys-Ile-Glu-Ile-Lys-Ile-Glu-Ile-Lys-Ile [IEIK13]”?
**A.** mechanical properties with versus without Indigo Carmine [3]: no significant difference; fold increase of storage modulus after DMEM treatment [4]: lower-fold increase
